From patent publication US20190211082A1 come the findings set out here.

The target of experiment [1] is humanized monoclonal IgG (anti-IgE monoclonal antibody, "Xolair" manufactured by Novartis AG; generic name Omalizumab). Kind of experiment: affinity chromatography, 1 mg IgG on 1 mL column, linear pH gradient 5.0 to 2.4 in 100 mM citrate buffer, pH at elution position.
Experiment [2] shares this target. Kind of experiment: affinity chromatography, 1 mg IgG on 1 mL column, linear pH gradient 5.0 to 3.0 in 100 mM acetate buffer, pH at elution position.
The target in experiment [3] is Fab fragment (IgG-Fab) derived from anti-IgE monoclonal antibody Omalizumab ("Xolair" manufactured by Novartis AG), made by papain digestion. Kind of experiment: affinity chromatography, 1 mg Fab on 1 mL column, linear pH gradient 5.0 to 2.4 in 100 mM citrate buffer, pH at elution peak top, 25 °C.
Experiment [4] shares this target. Kind of experiment: affinity chromatography, 1 mg Fab on 1 mL column, linear pH gradient 5.0 to 3.0 in 100 mM acetate buffer, pH at elution peak top, 25 °C.

With “Protein A ligand of the commercially available Protein A carrier "HiTrap MabSelect SuRe" manufactured by GE Healthcare”, the Antibody elution pH (100 mM citrate buffer) in experiment [1] came to 3.53 pH. For the same substance, the Antibody elution pH (100 mM acetate buffer) in experiment [2] was 3.64 pH.
“Protein L ligand of the commercially available affinity separation matrix "HiTrap Protein L 1 mL-gel" manufactured by GE Healthcare” had an Antibody elution pH (100 mM citrate buffer) in experiment [3] of 2.93 pH. The Antibody elution pH (100 mM acetate buffer) in experiment [4] was found to be 3.6 pH.
Take “VL-κ-binding peptide of Experimental product A: 4 VL-κ-binding domains (SEQ ID NO: 2) of wild Protein L of Peptostreptococcus magnus 312 strain bound through the peptides that connect domains in SEQ ID NO: 1, with an active group for immobilization at the C-terminal (designed binder)”: the Antibody elution pH (100 mM citrate buffer) in experiment [3] was found to be 2.71 pH. For the same substance, in experiment [4], the Antibody elution pH (100 mM acetate buffer) came to 3.47 pH.
